Reference: patent publication US20180118786A1 (ECOLE POLYTECHNIQUE FEDERALE DE LAUSANNE EPFL, published 2018)
Starred links: 1 amine or outer side, 2 acyl side, 3 side chain; linkers in the order of their positions; H or OH if unused. Positions of bridges follow the written chain, without caps; N, C: chain ends. Non-standard residues stand in square brackets, D forms with d. No end group written: not given here. TATA = O=C(CC[*:1])N1CN(C(=O)CC[*:2])CN(C(=O)CC[*:3])C1; Phe(4-F) = N[C@@H](Cc1ccc(F)cc1)C(=O)O; β3hR = N=C(N)NCCC[C@H](N)CC(=O)O

B1: peptide 4 (peptide 2, Phe3 to tyrosine) (peptide)
peptide: RCYRLPCRQLRCRW-NH2
modifications: linker 2-7-12 via TATA; N-terminus assumed
SMILES: CC(C)C[C@@H]1NC(=O)[C@H](CCC(N)=O)NC(=O)[C@H](CCCNC(=N)N)NC(=O)[C@@H]2CSCCC(=O)N3CN(CN(C3)C(=O)CCSC[C@H](NC(=O)[C@@H](N)CCCNC(=N)N)C(=O)N[C@@H](Cc3ccc(O)cc3)C(=O)N[C@@H](CCCNC(=N)N)C(=O)N[C@@H](CC(C)C)C(=O)N3CCC[C@H]3C(=O)N2)C(=O)CCSC[C@@H](C(=O)N[C@@H](CCCNC(=N)N)C(=O)N[C@@H](Cc2c[nH]c3ccccc23)C(N)=O)NC(=O)[C@H](CCCNC(=N)N)NC1=O
notes: Number tied to residue by the order of the list
B2: peptide 18 (peptide 2, Pro6 to leucine) (peptide)
peptide: RCFRLLCRQLRCRW-NH2
modifications: linker 2-7-12 via TATA; N-terminus assumed
SMILES: CC(C)C[C@@H]1NC(=O)[C@H](CCC(N)=O)NC(=O)[C@H](CCCNC(=N)N)NC(=O)[C@@H]2CSCCC(=O)N3CN(CN(C3)C(=O)CCSC[C@H](NC(=O)[C@@H](N)CCCNC(=N)N)C(=O)N[C@@H](Cc3ccccc3)C(=O)N[C@@H](CCCNC(=N)N)C(=O)N[C@@H](CC(C)C)C(=O)N[C@@H](CC(C)C)C(=O)N2)C(=O)CCSC[C@@H](C(=O)N[C@@H](CCCNC(=N)N)C(=O)N[C@@H](Cc2c[nH]c3ccccc23)C(N)=O)NC(=O)[C@H](CCCNC(=N)N)NC1=O
B3: peptide 15 (peptide 2, Pro6 to alanine) (peptide)
peptide: RCFRLACRQLRCRW-NH2
modifications: linker 2-7-12 via TATA; N-terminus assumed
SMILES: CC(C)C[C@@H]1NC(=O)[C@H](CCCNC(=N)N)NC(=O)[C@H](Cc2ccccc2)NC(=O)[C@@H](NC(=O)[C@@H](N)CCCNC(=N)N)CSCCC(=O)N2CN3CN(C2)C(=O)CCSC[C@@H](C(=O)N[C@@H](CCCNC(=N)N)C(=O)N[C@@H](Cc2c[nH]c4ccccc24)C(N)=O)NC(=O)[C@H](CCCNC(=N)N)NC(=O)[C@H](CC(C)C)NC(=O)[C@H](CCC(N)=O)NC(=O)[C@H](CCCNC(=N)N)NC(=O)[C@H](CSCCC3=O)NC(=O)[C@H](C)NC1=O
B4: peptide 5 (peptide 2, Phe3 to leucine) (peptide)
peptide: RCLRLPCRQLRCRW-NH2
modifications: linker 2-7-12 via TATA; N-terminus assumed
SMILES: CC(C)C[C@@H]1NC(=O)[C@H](CCC(N)=O)NC(=O)[C@H](CCCNC(=N)N)NC(=O)[C@@H]2CSCCC(=O)N3CN(CN(C3)C(=O)CCSC[C@H](NC(=O)[C@@H](N)CCCNC(=N)N)C(=O)N[C@@H](CC(C)C)C(=O)N[C@@H](CCCNC(=N)N)C(=O)N[C@@H](CC(C)C)C(=O)N3CCC[C@H]3C(=O)N2)C(=O)CCSC[C@@H](C(=O)N[C@@H](CCCNC(=N)N)C(=O)N[C@@H](Cc2c[nH]c3ccccc23)C(N)=O)NC(=O)[C@H](CCCNC(=N)N)NC1=O
notes: as for B1
B5: JS33-R (rsCF^4…^bC) (peptide)
peptide: H-[dR][dS]C[Phe(4-F)]RLPCHQL[β3hR]C-NH2
modifications: linker 3-8-13 via TATA
SMILES: CC(C)C[C@@H]1NC(=O)[C@H](CCC(N)=O)NC(=O)[C@H](Cc2c[nH]cn2)NC(=O)[C@@H]2CSCCC(=O)N3CN(CN(C3)C(=O)CCSC[C@H](NC(=O)[C@@H](CO)NC(=O)[C@H](N)CCCNC(=N)N)C(=O)N[C@@H](Cc3ccc(F)cc3)C(=O)N[C@@H](CCCNC(=N)N)C(=O)N[C@@H](CC(C)C)C(=O)N3CCC[C@H]3C(=O)N2)C(=O)CCSC[C@@H](C(N)=O)NC(=O)C[C@H](CCCNC(=N)N)NC1=O
B6: JS33 (rsCF^4…^bCR) (peptide)
peptide: H-[dR][dS]C[Phe(4-F)]RLPCHQL[β3hR]CR-NH2
modifications: linker 3-8-13 via TATA
SMILES: CC(C)C[C@@H]1NC(=O)[C@H](CCC(N)=O)NC(=O)[C@H](Cc2c[nH]cn2)NC(=O)[C@@H]2CSCCC(=O)N3CN(CN(C3)C(=O)CCSC[C@H](NC(=O)[C@@H](CO)NC(=O)[C@H](N)CCCNC(=N)N)C(=O)N[C@@H](Cc3ccc(F)cc3)C(=O)N[C@@H](CCCNC(=N)N)C(=O)N[C@@H](CC(C)C)C(=O)N3CCC[C@H]3C(=O)N2)C(=O)CCSC[C@@H](C(=O)N[C@@H](CCCNC(=N)N)C(N)=O)NC(=O)C[C@H](CCCNC(=N)N)NC1=O
notes: rs is D-Arg-D-Ser; F^4F is 4-fluoro-phenylalanine
B7: JS35 (rsCF^4…^bCR) (peptide)
peptide: H-[dR][dS]C[Phe(4-F)]RLPCRQL[β3hR]CR-NH2
modifications: linker 3-8-13 via TATA
SMILES: CC(C)C[C@@H]1NC(=O)[C@H](CCC(N)=O)NC(=O)[C@H](CCCNC(=N)N)NC(=O)[C@@H]2CSCCC(=O)N3CN(CN(C3)C(=O)CCSC[C@H](NC(=O)[C@@H](CO)NC(=O)[C@H](N)CCCNC(=N)N)C(=O)N[C@@H](Cc3ccc(F)cc3)C(=O)N[C@@H](CCCNC(=N)N)C(=O)N[C@@H](CC(C)C)C(=O)N3CCC[C@H]3C(=O)N2)C(=O)CCSC[C@@H](C(=O)N[C@@H](CCCNC(=N)N)C(N)=O)NC(=O)C[C@H](CCCNC(=N)N)NC1=O
B8: JS34 (rsCF^4…) (peptide)
peptide: H-[dR][dS]C[Phe(4-F)]RLPCHQLRCR-NH2
modifications: linker 3-8-13 via TATA
SMILES: CC(C)C[C@@H]1NC(=O)[C@H](CCC(N)=O)NC(=O)[C@H](Cc2c[nH]cn2)NC(=O)[C@@H]2CSCCC(=O)N3CN(CN(C3)C(=O)CCSC[C@H](NC(=O)[C@@H](CO)NC(=O)[C@H](N)CCCNC(=N)N)C(=O)N[C@@H](Cc3ccc(F)cc3)C(=O)N[C@@H](CCCNC(=N)N)C(=O)N[C@@H](CC(C)C)C(=O)N3CCC[C@H]3C(=O)N2)C(=O)CCSC[C@@H](C(=O)N[C@@H](CCCNC(=N)N)C(N)=O)NC(=O)[C@H](CCCNC(=N)N)NC1=O
B9: FXII618 variant with P in position six replaced by S (peptide)
peptide: RCFRLSCRQLRCRW-NH2
modifications: linker 2-7-12 via TATA; N-terminus assumed
SMILES: CC(C)C[C@@H]1NC(=O)[C@H](CCC(N)=O)NC(=O)[C@H](CCCNC(=N)N)NC(=O)[C@@H]2CSCCC(=O)N3CN(CN(C3)C(=O)CCSC[C@H](NC(=O)[C@@H](N)CCCNC(=N)N)C(=O)N[C@@H](Cc3ccccc3)C(=O)N[C@@H](CCCNC(=N)N)C(=O)N[C@@H](CC(C)C)C(=O)N[C@@H](CO)C(=O)N2)C(=O)CCSC[C@@H](C(=O)N[C@@H](CCCNC(=N)N)C(=O)N[C@@H](Cc2c[nH]c3ccccc23)C(N)=O)NC(=O)[C@H](CCCNC(=N)N)NC1=O

Each binder was assayed against T1, human β-FXIIa (HFXIIAB; Molecular Innovations) (human, UniProt P00748 354-362; P00748 373-615, limits assumed) (assay: protease inhibition assay).
T1 construct: domain: catalytic domain; Bought; also called human b-FXIIa; human FXIIa
T1 sequence (P00748 373-615 limits assumed, one chain of several): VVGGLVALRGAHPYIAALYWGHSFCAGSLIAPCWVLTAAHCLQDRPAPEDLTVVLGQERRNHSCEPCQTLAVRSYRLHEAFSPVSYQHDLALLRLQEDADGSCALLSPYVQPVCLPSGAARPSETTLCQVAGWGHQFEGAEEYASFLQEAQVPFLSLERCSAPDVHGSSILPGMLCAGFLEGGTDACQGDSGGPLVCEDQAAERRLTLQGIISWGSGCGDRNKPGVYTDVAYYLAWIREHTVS

Row | Binder | fold reduction of activity vs peptide 2
1 | B1 | > 2 fold
2 | B2 | < 2 fold
3 | B3 | < 2 fold
4 | B4 | > 2 fold

Molecular target: T1, human β-FXIIa (HFXIIAB; Molecular …)
Assay: protease inhibition assay
Remark: another data set of the same source

Row | Binder | Ki
5 | B5 | 400 pM
6 | H-[dR][dS]CFRLPCHQL[β3hR]CR-NH2 (linker 3-8-13 via TATA) [JS36 (rs…^bCR)] | 1000 pM
7 | B6 | 360 pM
8 | B7 | 320 pM
9 | B8 | 640 pM

The binders below were run against T1, human β-FXIIa (HFXIIAB; Molecular …) (assay: protease inhibition assay (FIG. 6)).

Row | Binder | Ki
10 | B9 | < 100000 pM
11 | B2 | < 100000 pM
12 | B3 | < 100000 pM

The binders below were run against T1, human β-FXIIa (HFXIIAB; Molecular …) (assay: protease inhibition assay (Table in FIG. 6)).

Row | Binder | Ki
13 | B1 | < 100000 pM
14 | B4 | < 100000 pM
